In PMC2978023:

What was measured:
[1] = biological target: recombinant purified αM integrin subunit (UniProt P11215); test: ELISA
[2] = biological target: recombinant purified β2 integrin subunit (UniProt P05107); test: ELISA
[3] = biological target: recombinant purified integrin αMβ2 (UniProt P11215); test: ELISA
[4] = biological target: αM/αLβ2 chimera (UniProt P05107); test: flow cytometry on cells
[5] = biological target: αMβ2(728Δ) (UniProt P11215); test: flow cytometry on cells
[6] = biological target: wild-type αMβ2 on transfected K562 cells (UniProt P11215); test: flow cytometry on cells
[7] = biological target: αM(1119Δ)β2 (UniProt P11215); test: flow cytometry on cells
[8] = biological target: integrin αMβ2 on human PMNs (human (endogenous in PMNs)) (UniProt P11215)

Sequence of Ang(1–4), angiostatin composed of four kringle domains of Plg (P00747 20-810): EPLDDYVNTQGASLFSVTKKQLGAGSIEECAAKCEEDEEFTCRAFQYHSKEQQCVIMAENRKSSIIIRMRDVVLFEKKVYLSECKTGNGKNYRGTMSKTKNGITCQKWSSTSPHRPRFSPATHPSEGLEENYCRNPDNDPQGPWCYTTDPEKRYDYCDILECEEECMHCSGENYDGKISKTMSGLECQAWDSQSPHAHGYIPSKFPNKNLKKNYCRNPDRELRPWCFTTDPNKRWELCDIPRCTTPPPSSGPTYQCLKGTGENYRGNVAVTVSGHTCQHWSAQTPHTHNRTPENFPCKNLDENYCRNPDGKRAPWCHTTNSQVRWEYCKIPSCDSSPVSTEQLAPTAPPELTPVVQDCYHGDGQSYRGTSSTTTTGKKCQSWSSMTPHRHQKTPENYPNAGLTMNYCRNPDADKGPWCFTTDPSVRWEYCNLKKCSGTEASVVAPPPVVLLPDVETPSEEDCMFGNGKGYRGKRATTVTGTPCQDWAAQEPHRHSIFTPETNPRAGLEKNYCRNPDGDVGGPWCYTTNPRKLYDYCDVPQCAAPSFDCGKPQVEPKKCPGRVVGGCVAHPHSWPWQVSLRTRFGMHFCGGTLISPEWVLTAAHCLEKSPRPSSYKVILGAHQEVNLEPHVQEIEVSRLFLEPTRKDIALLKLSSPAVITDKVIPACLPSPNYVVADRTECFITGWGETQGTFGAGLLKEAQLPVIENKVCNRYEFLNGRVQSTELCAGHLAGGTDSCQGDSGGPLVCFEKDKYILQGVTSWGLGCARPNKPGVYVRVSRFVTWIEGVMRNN

A Kd [1] of 400 nM, a Kd [2] of over 100000 nM and a Kd [3] of 500 nM were found for “Ang(1–4), angiostatin composed of four kringle domains of Plg (from UniProt P00747 20-810) (domain or fragment)” in this work.
An MFI of bound ligand [4] of 129 MFI was found for “human fibrinogen (from UniProt P02671-2 20-644; P02675 31-491; P02679-2 27-437) (complex)” in this work.
An MFI of bound ligand [4] of 135 MFI, an MFI of bound ligand [5] of 152 MFI and an MFI of bound ligand [6] of 130 MFI were found for plasminogen (Glutamic Plg) (ligand) in this work. The MFI of bound ligand [7] was 145 MFI, the PMN early/late apoptosis (% annexin V+ cells), 16 h, Plg 1 μM with NIF (50 nM) [8] was 90% and the Kd [1] was 100 nM. The Kd [2] was 500 nM.
